From the PETadex activity labels (doi:10.1074/jbc.m109.041285)

Substrate: Acd (paper fig)
Conditions: 30 °C

Protein	Km [mM]	kcat [s⁻¹]	kcat/Km [M⁻¹ s⁻¹]
unnamed (protein) MSKVDLWQDATAQAELVRSGEISRTELLEATIAHVQAVNPEINAVIIPLFEKARRESELASGPFAGVPYLLKDLTVVSQGDINTSSIKGMKESGYRADHDAYFVQRMRAAGFVLLGKTNTPEMGNQVTTEPEAWGATRNPWNLGRSVGGSSGGSGAAVAAALSPVAHGNDAAGSVRIPASVCGVVGLKPTRGRISPGPLVTDSDNVAGAAHEGLFARSVRDIAALLDVVSGHRPGDTFCAPTASRPYAQGISENPGSLRVGVLTHNPVGDFALDPECAAAARGAAAALAALGHDVNDAYPEALGDRSFLKDYSTIGDVAIAREIERNGELIGRPLTEDDVEWTSWEMVKRADQVTGRAFAACVDELRYYAGKVERWWEAGWDLLILPTVTRQTPEIGELMLAKGTDLEGRQSAFISGSLQMLAFTVPFNVSGQPAISLPIGMSSDGMPIGVQIVAAYGREDLLLQVAAQLEGALPWVARRPQLLNPSRKIPAA	3.66	9.15	2500
unnamed (protein) MSKVDLWQDATAQAELVRSGEISRTELLEATIAHVQAVNPEINAVIIPLFEKARRESELASGPFAGVPYLLKDLTVVSQGDINTSSIKGMKESGYRADHDAYFVQRMRAAGFVLLGKTNTPEMGNQVTTEPEAWGATRNPWNLGRSVGGSSGGSGAAVAAALSPVAHGNDAAGSVRIPASVCGVVGLKPTRGRISPGPLVTDSDNVAGAAHEGLFARSVRDIAALLDVVSGHRPGDTFCAPTASRPYAQGISENPGSLRVGVLTHNPVGDFALDPECAAAARGAAAALAALGHDVNDAYPEALGDRSFLKDYSTICDVAIAREIERNGELIGRPLTEDDVEWTSWEMVKRADQVTGRAFAACVDELRYYAGKVERWWEAGWDLLILPTVTRQTPEIGELMLAKGTDLEGRQSAFISGSLQMLAFTVPFNVSGQPAISLPIGMSSDGMPIGVQIVAAYGREDLLLQVAAQLEGALPWVARRPQLLNPSRKIPAA	3.51	4.97	1420
unnamed (protein) MSKVDLWQDATAQAELVRSGEISRTELLEATIAHVQAVNPEINAVIIPLFEKARRESELASGPFAGVPYLLKDLTVVSQGDINTSSIKGMKESGYRADHDAYFVQRMRAAGFVLLGKTNTPEMGNQVTTEPEAWGATRNPWNLGRSVGGSSGGSGAAVAAALSPVAHGNDAAGSVRIPASVCGVVGLKPTRGRISPGPLVTDSDNVAGAAHEGLFARSVRDIAALLDVVSGHRPGDTFCAPTASRPYAQGISENPGSLRVGVLTHNPVGDFALDPECAAAARGAAAALAALGHDVNDAYPEALGDRSFLKDYSTISDVAIAREIERNGELIGRPLTEDDVEWTSWEMVKRADQVTGRAFAACVDELRYYAGKVERWWEAGWDLLILPTVTRQTPEIGELMLAKGTDLEGRQSAFISGSLQMLAFTVPFNVSGQPAISLPIGMSSDGMPIGVQIVAAYGREDLLLQVAAQLEGALPWVARRPQLLNPSRKIPAA	1.8	4.83	2680
unnamed (protein) MSKVDLWQDATAQAELVRSGEISRTELLEATIAHVQAVNPEINAVIIPLFEKARRESELASGPFAGVPYLLKDLTVVSQGDINTSSIKGMKESGYRADHDAYFVQRMRAAGFVLLGKTNTPEMGNQVTTEPEAWGATRNPWNLGRSVGGSSGGSGAAVAAALSPVAHGNDAAGSVRIPASVCGVVGLKPTRGRISPGPLVTDSDNVAGAAHEGLFARSVRDIAALLDVVSGHRPGDTFCAPTASRPYAQGISENPGSLRVGVLTHNPVGDFALDPECAAAARGAAAALAALGHDVNDAYPEALGDRSFLKDYSTIDDVAIAREIERNGELIGRPLTEDDVEWTSWEMVKRADQVTGRAFAACVDELRYYAGKVERWWEAGWDLLILPTVTRQTPEIGELMLAKGTDLEGRQSAFISGSLQMLAFTVPFNVSGQPAISLPIGMSSDGMPIGVQIVAAYGREDLLLQVAAQLEGALPWVARRPQLLNPSRKIPAA	19	0.14	7.37
unnamed (protein) MSKVDLWQDATAQAELVRSGEISRTELLEATIAHVQAVNPEINAVIIPLFEKARRESELASGPFAGVPYLLKDLTVVSQGDINTSSIKGMKESGYRADHDAYFVQRMRAAGFVLLGKTNTPEMGAQVTTEPEAWGATRNPWNLGRSVGGSSGGSGAAVAAALSPVAHGNDAAGSVRIPASVCGVVGLKPTRGRISPGPLVTDSDNVAGAAHEGLFARSVRDIAALLDVVSGHRPGDTFCAPTASRPYAQGISENPGSLRVGVLTHNPVGDFALDPECAAAARGAAAALAALGHDVNDAYPEALGDRSFLKDYSTICDVAIAREIERNGELIGRPLTEDDVEWTSWEMVKRADQVTGRAFAACVDELRYYAGKVERWWEAGWDLLILPTVTRQTPEIGELMLAKGTDLEGRQSAFISGSLQMLAFTVPFNVSGQPAISLPIGMSSDGMPIGVQIVAAYGREDLLLQVAAQLEGALPWVARRPQLLNPSRKIPAA	13.2	1.12	84.8
unnamed (protein) MSKVDLWQDATAQAELVRSGEISRTELLEATIAHVQAVNPEINAVIIPLFEKARRESELASGPFAGVPYLLKDLTVVSQGDINTSSIKGMKESGYRADHDAYFVQRMRAAGFVLLGKTNTPEMGNQVTTEPEAWGATRNPWNLGRSVGGSSGGSGAAVAAALSPVAHGNDAAGSVRIPASVCGVVGLKPTRGRISPGPLVTDSDNVAGAAHEGLFARSVRDIAALLDVVSGHRPGDTFCAPTASRPYAQGISENPGSLRVGVLTHNPVGDFALDPECAAAARGAAAALAALGHDVNDAYPEALGDRSFLKDYSTIADVAIAREIERNGELIGRPLTEDDVEWTSWEMVKRADQVTGRAFAACVDELRYYAGKVERWWEAGWDLLILPTVTRQTPEIGELMLAKGTDLEGRQSAFISGSLQMLAFTVPFNVSGQPAISLPIGMSSDGMPIGVQIVAAYGREDLLLQVAAQLEGALPWVARRPQLLNPSRKIPAA	0.85	0.71	835
